From patent US20230025280A1, “PH RESPONSIVE COMPOSITIONS, FORMULATIONS, AND METHODS OF IMAGING A TUMOR” (ONCONANO MEDICINE, INC, priority 2019, published 2023)
Several values for one entry are separate records, joined by “and”; a condition that tells them apart may be missing. Equal values may be shown once.

Assay: Phase 1 (1a/1b) pharmacokinetics: plasma concentrations after single IV dose (validated direct fluorescence reader assay), noncompartmental analysis
Assay type: in vivo, human
Conditions: for AUC0-24 hr / AUCall / AUClast / C10 m / Cmax / T1/2 / Tmax / Plasma Conc: Phase 1b; for AUC0-24 hr / AUCall / AUClast / C10 m / Cmax / T1/2 / Tmax: 1.2 mg/kg single IV; for Plasma Conc: 1.2 mg/kg
Text: Phase 1 is a single-Principal Investigator, non-randomized, open-label, single-arm, cross-sectional study to evaluate the safety, PK profile, and imaging feasibility of Compound 1 in patients with solid cancers who require surgical excision. The main purpose of this study was to investigate the safety, PK, and feasibility of Compound 1 as an intra-operative optical imaging agent to detect tumors and metastatic lymph nodes in solid cancers. The study was intended to investigate the optimal dose range of Compound 1 for an adequate TBR and CNR of fluorescence obtained intraoperatively at 24 (±8) hours post dosing and with ex vivo specimens using ICG compatible cameras and imaging devices.
Phase 1 enrolled 30 patients with solid cancers (HNSCC, breast cancer, esophageal cancer, or colorectal cancer) who have a biopsy-confirmed diagnosis of respective tumor types and are scheduled to undergo surgical resection of the tumor. The study design included a standard 3+3 design for the dose-escalation portion (Phase 1a; N=18 maximum) followed by a dose-expansion portion (Phase 1b; N=15). All patients received a single I.V. dose of Compound 1, followed by routine surgery approximately 24 hours after infusion of Compound 1.
Phase 1a was a dose-finding study performed in 5 cohorts of 3 patients each. The dose levels evaluated were […], and 1.2 mg/kg, in this sequence. Inter-cohort dose escalation took place after the last patient in the previous cohort completed the Day 10 safety assessment. Safety, PK, and imaging feasibility were evaluated in both the Phase 1a and 1b portions of the study. Patient safety is assessed during the study and for up to 10 days post-dose.
Study design: Single Compound 1 IV dose was administered as a 1-5 minute IV infusion to patients in five cohorts (0.1, 0.3, 0.5, 0.8, and 1.2 mg/kg) with three patients per cohort in Phase 1a and 15 patients at a dose of 1.2 mg/kg in Phase 1b. Patient demographic information including tumor types is presented in Table 4 and 5 for Phase 1a and Table 5 for Phase 1b. Intertek Pharmaceutical Services (San Diego, Calif.) determined Compound 1 plasma concentrations using a validated direct fluorescence reader assay. Pacific BioDevelopment (Davis, Calif.) performed the PK analysis.
Sample collection: Blood samples were collected prior to infusion and at 10 minutes and 0.5, 1, 3, 8, 24, 48, 72, and 240 hours after infusion.
Analysis: Plasma concentration versus time profiles were generated for each patient. Pharmacokinetic parameters were estimated using Phoenix WinNonlin (version 8.0). According to SOP, concentrations reported as BQL were set to 0 except for the 0.5 h sample for subject #ON1102, which was set to LLOQ/2 ([…] value used in parameter calculations) and the 24 and 48 h samples.
If the coefficient of determination for the terminal slope estimation was less than 0.8, T1/2 was not reported (NR). AUC extrapolated to infinity is not reported for any data set because in all cases the % extrapolated AUC was greater than 20% and thus the AUCinf estimate would not be reliable. The concentration at 10 minutes, the first time point measured (C10m), was also reported for each patient.
The area under the plasma concentration versus time curves from dosing to the last time point with a measurable concentration (AUClast) was estimated by the linear trapezoid method. The last three or more time points were used to estimate the elimination rate constant (λz) which was used to estimate the terminal-phase half-life (T1/2) and AUC from zero to infinity (AUCINF) from the following equations: […]

## PEO90-140-b-P(DBA60-150-r-ICG0-3-r-AMA0-3) [Compound 1]
mean
  AUC0-24 hr: 638 µg·h/mL
  AUCall: 1840 µg·h/mL
  AUClast: 1180 µg·h/mL
  C10 m: 33.2 µg/mL
  Cmax: 34800 ng/mL
  T1/2: 46.4 h
  Tmax: 0.967 h
median
  AUC0-24 hr: 626 µg·h/mL
  AUCall: 1460 µg·h/mL
  AUClast: 1110 µg·h/mL
  C10 m: 32.1 µg/mL
  Cmax: 34100 ng/mL
  T1/2: 42.6 h
  Tmax: 1.00 h
0.170 hr, individual subject
  Plasma Conc: 27.5 µg/mL and 38.6 µg/mL and 30.3 µg/mL and 31.4 µg/mL and 25.5 µg/mL and 40.0 µg/mL and 47.6 µg/mL and 32.6 µg/mL and 31.3 µg/mL and 36.5 µg/mL and 32.1 µg/mL and 35.8 µg/mL and 33.0 µg/mL and 28.0 µg/mL and 28.5 µg/mL
0.170 hr, mean
  Plasma Conc: 33.2 µg/mL
0.170 hr, median
  Plasma Conc: 32.1 µg/mL
0.500 hr, individual subject
  Plasma Conc: 29.2 μg/mL and 35.2 μg/mL and 30.3 μg/mL and 28.5 μg/mL and 27.6 μg/mL and 40.0 μg/mL and 44.1 μg/mL and 32.0 μg/mL (2×) and 28.9 μg/mL and 34.5 μg/mL and 32.9 μg/mL and 36.4 μg/mL and 31.4 μg/mL and 29.8 μg/mL
0.500 hr, mean
  Plasma Conc: 32.9 µg/mL
0.500 hr, median
  Plasma Conc: 32.0 µg/mL
1.00 hr, individual subject
  Plasma Conc: 25.9 μg/mL and 33.0 μg/mL and 31.3 μg/mL (2×) and 32.6 μg/mL and 23.3 μg/mL and 42.2 μg/mL (2×) and 29.9 μg/mL (2×) and 37.7 μg/mL and 34.1 μg/mL and 35.4 μg/mL and 34.3 μg/mL and 26.8 μg/mL
1.00 hr, mean
  Plasma Conc: 32.7 µg/mL
1.00 hr, median
  Plasma Conc: 32.6 µg/mL
3.00 hr, individual subject
  Plasma Conc: 27.5 μg/mL and 34.3 μg/mL (2×) and 32.4 μg/mL and 31.3 μg/mL and 25.0 μg/mL and 40.1 μg/mL and 35.3 μg/mL and 30.3 μg/mL and 29.6 μg/mL and 31.5 μg/mL and 33.3 μg/mL and 31.2 μg/mL and 26.4 μg/mL and 25.4 μg/mL
3.00 hr, mean
  Plasma Conc: 31.2 µg/mL
3.00 hr, median
  Plasma Conc: 31.3 µg/mL
8.00 hr, individual subject
  Plasma Conc: 21.1 μg/mL and 28.3 μg/mL and 31.3 μg/mL and 26.1 μg/mL and 23.6 μg/mL (2×) and 35.8 μg/mL and 32.6 μg/mL and 25.0 μg/mL and 33.6 μg/mL and 27.9 μg/mL and 32.4 μg/mL and 27.8 μg/mL and 30.0 μg/mL and 24.5 μg/mL
8.00 hr, mean
  Plasma Conc: 28.2 µg/mL
8.00 hr, median
  Plasma Conc: 27.9 µg/mL
24.0 hr, individual subject
  Plasma Conc: 18.9 μg/mL and 29.8 μg/mL and 15.5 μg/mL and 20.2 μg/mL and 15.0 μg/mL and 23.9 μg/mL and 22.7 μg/mL and 19.5 μg/mL and 26.2 μg/mL and 20.3 μg/mL (2×) and 21.2 μg/mL and 18.6 μg/mL and 25.6 μg/mL and 21.0 μg/mL
24.0 hr, mean
  Plasma Conc: 21.2 µg/mL
24.0 hr, median
  Plasma Conc: 20.3 µg/mL
48.0 hr, individual subject
  Plasma Conc: BQL (BQL (<10 μg/mL), set = 0 for PK analysis) (2×) and 19.9 μg/mL and 18.5 μg/mL and 12.6 μg/mL and 12.0 μg/mL and 16.3 μg/mL and 13.3 μg/mL and 11.8 μg/mL and 15.0 μg/mL and 12.5 μg/mL and 10.2 μg/mL and 22.0 μg/mL and 12.8 μg/mL and 12.3 μg/mL
48.0 hr, mean
  Plasma Conc: 12.6 µg/mL
48.0 hr, median
  Plasma Conc: 12.6 µg/mL
72.0 hr, individual subject
  Plasma Conc: BQL (BQL (<10 μg/mL), set = 0 for PK analysis) (8×) and 18.7 μg/mL and 14.9 μg/mL and 10.4 μg/mL and 12.0 μg/mL and 12.8 μg/mL and 13.8 μg/mL and 17.3 μg/mL
72.0 hr, mean
  Plasma Conc: 6.66 µg/mL
72.0 hr, median
  Plasma Conc: 0.00 µg/mL
240 hr, individual subject
  Plasma Conc: BQL (BQL (<10 μg/mL), set = 0 for PK analysis)
240 hr, mean
  Plasma Conc: 0.00 µg/mL
240 hr, median
  Plasma Conc: 0.00 µg/mL
From 0.3 through 1.2 mg/kg
  C10 in relation to dose: appears to be dose proportional
